The results in this text go back to paper PMC4236683 (2014).

For assay [1], the target named is T1, PlexinA2 (Mus musculus, UniProt P70207).
T1 chain: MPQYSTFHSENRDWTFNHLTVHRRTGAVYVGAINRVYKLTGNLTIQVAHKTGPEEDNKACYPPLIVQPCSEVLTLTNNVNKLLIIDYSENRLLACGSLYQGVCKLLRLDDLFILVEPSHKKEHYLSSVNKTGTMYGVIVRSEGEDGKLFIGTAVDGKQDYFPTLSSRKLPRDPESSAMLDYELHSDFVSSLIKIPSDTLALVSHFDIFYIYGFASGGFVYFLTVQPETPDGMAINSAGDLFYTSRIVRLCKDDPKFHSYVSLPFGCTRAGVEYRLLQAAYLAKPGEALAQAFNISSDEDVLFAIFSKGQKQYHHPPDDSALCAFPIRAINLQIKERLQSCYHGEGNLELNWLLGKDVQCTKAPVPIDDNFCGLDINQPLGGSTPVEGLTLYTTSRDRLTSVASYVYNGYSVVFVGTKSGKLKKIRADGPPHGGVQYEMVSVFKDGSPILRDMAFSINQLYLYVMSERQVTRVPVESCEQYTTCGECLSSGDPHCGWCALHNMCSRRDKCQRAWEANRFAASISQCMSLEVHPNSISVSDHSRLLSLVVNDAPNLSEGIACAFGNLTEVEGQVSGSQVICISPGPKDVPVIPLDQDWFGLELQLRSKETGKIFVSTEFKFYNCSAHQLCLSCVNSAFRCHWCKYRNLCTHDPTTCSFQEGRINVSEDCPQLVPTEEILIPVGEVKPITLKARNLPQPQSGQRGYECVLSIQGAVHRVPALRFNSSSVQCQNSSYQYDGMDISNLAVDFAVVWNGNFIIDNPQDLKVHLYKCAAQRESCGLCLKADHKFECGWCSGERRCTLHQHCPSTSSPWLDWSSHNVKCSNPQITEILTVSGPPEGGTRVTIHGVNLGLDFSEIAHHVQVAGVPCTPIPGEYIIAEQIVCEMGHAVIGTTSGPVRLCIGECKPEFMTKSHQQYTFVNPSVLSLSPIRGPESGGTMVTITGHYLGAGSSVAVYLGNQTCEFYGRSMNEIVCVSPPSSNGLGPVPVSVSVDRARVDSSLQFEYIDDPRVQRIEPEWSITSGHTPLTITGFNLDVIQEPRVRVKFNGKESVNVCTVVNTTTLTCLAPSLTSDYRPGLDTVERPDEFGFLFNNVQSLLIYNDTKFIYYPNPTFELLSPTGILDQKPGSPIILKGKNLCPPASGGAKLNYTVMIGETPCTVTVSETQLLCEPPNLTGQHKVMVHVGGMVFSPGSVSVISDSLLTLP
In words: saturation binding.

In assay [2] the target is PlexinA1 (Mus musculus, UniProt P70206). The experiment in a line: saturation binding.
Sequence of PlexinA1 (P70206 28-1242): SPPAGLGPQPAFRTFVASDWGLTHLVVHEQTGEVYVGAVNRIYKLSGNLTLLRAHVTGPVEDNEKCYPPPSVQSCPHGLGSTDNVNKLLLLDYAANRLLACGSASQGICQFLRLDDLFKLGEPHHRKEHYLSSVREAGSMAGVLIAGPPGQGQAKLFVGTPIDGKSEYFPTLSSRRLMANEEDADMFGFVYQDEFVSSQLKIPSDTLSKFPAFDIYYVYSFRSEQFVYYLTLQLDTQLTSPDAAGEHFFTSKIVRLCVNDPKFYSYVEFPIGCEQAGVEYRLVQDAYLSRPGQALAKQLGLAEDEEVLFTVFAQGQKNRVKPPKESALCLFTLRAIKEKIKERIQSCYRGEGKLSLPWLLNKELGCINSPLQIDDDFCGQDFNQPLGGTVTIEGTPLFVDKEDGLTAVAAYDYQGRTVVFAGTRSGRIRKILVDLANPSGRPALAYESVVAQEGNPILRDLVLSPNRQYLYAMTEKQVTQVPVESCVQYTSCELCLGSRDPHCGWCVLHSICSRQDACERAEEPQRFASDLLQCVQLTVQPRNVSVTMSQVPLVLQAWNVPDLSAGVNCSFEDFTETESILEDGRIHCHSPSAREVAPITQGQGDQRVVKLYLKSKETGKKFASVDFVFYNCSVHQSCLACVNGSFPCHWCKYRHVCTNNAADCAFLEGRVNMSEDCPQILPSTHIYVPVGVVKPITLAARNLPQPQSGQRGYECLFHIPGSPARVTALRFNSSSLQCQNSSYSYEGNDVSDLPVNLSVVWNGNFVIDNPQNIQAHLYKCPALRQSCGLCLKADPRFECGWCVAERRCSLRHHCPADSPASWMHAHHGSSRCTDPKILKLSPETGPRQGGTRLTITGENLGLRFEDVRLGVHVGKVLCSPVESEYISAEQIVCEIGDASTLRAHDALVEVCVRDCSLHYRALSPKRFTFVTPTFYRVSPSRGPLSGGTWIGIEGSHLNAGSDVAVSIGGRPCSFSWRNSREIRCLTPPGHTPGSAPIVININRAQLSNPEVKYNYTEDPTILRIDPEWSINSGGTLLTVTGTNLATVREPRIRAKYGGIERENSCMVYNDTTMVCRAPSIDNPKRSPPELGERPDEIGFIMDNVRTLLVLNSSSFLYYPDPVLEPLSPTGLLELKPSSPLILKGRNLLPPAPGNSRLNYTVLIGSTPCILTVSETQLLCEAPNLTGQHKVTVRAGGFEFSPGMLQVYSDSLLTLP

B1: Sema5A-Fc (protein)
chain: PETQDPAKCQRAEHPVVSYKEIGPWLREFRAENAVDFSRLTFDPGQKELVVGARNYLFRLELEDLSLIQAVEWECDEATKKACYSKGKSKEECQNYIRVLLVGGDRLFTCGTNAFTPVCTIRSLSNLTEIHDQISGMARCPYSPQHNSTALLTASGELYAATAMDFPGRDPAIYRSLGTLPPLRTAQYNSKWLNEPNFVSSYDIGNFTYFFFRENAVEHDCGKTVFSRPARVCKNDIGGRFLLEDTWTTFMKARLNCSRPGEVPFYYNELQGTFFLPELDLIYGIFTTNVNSIASSAVCVFNLSAISQAFNGPFKYQENSRSAWLPYPNPNPNFQCGTMDQGLYVNLTERNLQDAQKFILMHEVVQPVTTVPSFMEDNSRFSHLAVDVVQGRETLVHIIYLGTDYGTIKKVRAPLSQSSGSCLLEEIELFPERRSEPIRSLQILHSQSVLFVGLQEHVAKIPLKRCHFHQTRSACIGAQDPYCGWDAVMKKCTSLEESLSMTQWDQSIPTCPTRNLTVDGSFGPWSPWTPCTHTDGTAVGSCLCRSRSCDRPAPQCGGWQCEGPRMEITNCSRNGGWTPWTSWSPCSTTCGIGFQVRQRSCSNPTPRHGGRVCVGQNREERYCNEHLLCPPHVFWTGWGPWERCTAQCGGGIQARRRTCENGPDCAGSNVEYHPCNTNACPELKKTTPWTPWTPVNISDNGGHYEQRFRYTCKARLPDPNLLEVGRQRIEMRYCSSDGTSGCSTDGLSGDFLRAGRYSAHTVNGAWSAWTSWSQCSRDCSRGIRNRKRVCNNPEPKFGGMPCLGPSLEFQECNILPCPVDGVWSCWSSWSKCSATCGGGHYMRTRSCSNPAPAYGGDICLGLHTEEALCNTQTCPESWSEWSDWSVCDASGTQVRARQCILLFPVGSQCSGNTTESRPCVFDSNFIPEVSVARSSSVEEKRCGEFNMFHM
Regarding B1, the Kd in assay [1] and in assay [2] was around 11.5 nM in each case.

For orientation: Kd means a measure of binding affinity in units of concentration. Low values mean tighter binding, high ones weaker binding.
